In publication PMC10760972:
Where two headings read alike, the source gives them in different places.

Assays:
AURKB = AURKB (UniProt Q96GD4); assay: co-precipitation from cells, immunoblot; conditions: reference: NSFL1C wild type; sites S140

## AURKB: AURKB-3KR (K31R/K56R/K85R)
Ubiquitination at K31
  enzymatic_activity: decreases
  localisation_or_trafficking: decreases
Ubiquitination at K56
  enzymatic_activity: decreases
  localisation_or_trafficking: decreases
Ubiquitination at K85
  enzymatic_activity: decreases
  localisation_or_trafficking: decreases

## NSFL1C (from UniProt Q9UNZ2) NSFL1C-S140A
AURKB
  binding against the reference: weaker

## NSFL1C: NSFL1C-S140A
Phosphorylation at S140
  other: abolishes
